Where no end group is shown, it is not given here.
T1: human natriuretic peptide receptor A (NPRA) (human, UniProt P16066 33-1061)
T1 sequence (looked up): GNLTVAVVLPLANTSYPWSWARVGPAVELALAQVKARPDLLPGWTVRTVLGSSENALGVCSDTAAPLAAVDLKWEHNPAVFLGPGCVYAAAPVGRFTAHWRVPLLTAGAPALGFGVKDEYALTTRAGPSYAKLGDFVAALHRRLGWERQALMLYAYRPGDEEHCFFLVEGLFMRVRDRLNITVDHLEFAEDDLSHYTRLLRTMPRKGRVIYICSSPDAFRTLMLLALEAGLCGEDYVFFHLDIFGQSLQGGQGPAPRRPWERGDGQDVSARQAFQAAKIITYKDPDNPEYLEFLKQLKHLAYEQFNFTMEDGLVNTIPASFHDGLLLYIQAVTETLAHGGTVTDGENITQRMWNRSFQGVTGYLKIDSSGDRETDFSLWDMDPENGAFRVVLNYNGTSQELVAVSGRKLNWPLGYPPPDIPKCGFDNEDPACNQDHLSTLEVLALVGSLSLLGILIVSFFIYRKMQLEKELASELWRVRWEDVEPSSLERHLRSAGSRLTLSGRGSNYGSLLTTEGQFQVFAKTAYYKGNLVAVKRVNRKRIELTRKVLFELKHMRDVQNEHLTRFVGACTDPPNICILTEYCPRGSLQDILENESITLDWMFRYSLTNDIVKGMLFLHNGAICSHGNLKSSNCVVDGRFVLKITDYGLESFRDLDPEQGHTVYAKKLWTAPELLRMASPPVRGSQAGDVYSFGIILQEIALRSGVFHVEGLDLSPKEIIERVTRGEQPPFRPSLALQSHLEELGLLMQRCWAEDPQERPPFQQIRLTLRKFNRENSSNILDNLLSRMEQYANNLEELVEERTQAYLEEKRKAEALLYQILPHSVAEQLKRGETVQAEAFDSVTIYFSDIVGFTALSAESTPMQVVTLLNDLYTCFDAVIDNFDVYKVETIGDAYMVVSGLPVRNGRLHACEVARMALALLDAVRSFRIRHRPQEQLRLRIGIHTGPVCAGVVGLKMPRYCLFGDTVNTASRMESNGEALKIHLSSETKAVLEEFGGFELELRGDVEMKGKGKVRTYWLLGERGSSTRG

T2: rat NPRA (rat, UniProt P18910 29-1057)
T2 sequence (looked up): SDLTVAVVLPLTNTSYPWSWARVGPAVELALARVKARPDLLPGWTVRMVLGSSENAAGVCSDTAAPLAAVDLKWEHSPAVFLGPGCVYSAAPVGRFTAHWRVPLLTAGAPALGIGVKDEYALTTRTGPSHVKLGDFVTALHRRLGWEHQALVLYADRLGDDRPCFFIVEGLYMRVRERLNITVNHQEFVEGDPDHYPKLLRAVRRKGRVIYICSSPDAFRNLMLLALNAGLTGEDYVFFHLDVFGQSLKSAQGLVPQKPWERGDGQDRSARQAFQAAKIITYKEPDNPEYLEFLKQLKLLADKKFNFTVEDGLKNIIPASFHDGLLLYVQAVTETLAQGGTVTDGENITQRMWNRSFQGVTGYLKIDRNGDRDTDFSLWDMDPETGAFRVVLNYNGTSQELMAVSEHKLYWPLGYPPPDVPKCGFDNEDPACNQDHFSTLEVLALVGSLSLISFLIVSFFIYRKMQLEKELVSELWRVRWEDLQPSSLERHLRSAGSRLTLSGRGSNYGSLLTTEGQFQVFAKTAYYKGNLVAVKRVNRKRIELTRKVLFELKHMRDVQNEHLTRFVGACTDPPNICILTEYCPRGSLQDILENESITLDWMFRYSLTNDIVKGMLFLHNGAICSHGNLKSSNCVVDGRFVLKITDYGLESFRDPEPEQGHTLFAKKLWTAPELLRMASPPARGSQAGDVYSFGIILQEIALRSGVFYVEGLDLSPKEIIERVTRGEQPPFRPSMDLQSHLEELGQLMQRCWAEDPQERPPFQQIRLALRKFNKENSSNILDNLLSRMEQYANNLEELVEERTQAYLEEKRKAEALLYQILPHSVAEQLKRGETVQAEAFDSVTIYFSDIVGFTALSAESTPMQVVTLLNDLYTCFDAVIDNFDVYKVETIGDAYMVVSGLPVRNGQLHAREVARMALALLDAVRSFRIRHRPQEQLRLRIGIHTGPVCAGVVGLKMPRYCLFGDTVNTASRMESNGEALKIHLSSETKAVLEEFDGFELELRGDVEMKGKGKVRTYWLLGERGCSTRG

T3: canine NPRA (canine, UniProt A0A8I3MHU3 32-1060)
T3 sequence: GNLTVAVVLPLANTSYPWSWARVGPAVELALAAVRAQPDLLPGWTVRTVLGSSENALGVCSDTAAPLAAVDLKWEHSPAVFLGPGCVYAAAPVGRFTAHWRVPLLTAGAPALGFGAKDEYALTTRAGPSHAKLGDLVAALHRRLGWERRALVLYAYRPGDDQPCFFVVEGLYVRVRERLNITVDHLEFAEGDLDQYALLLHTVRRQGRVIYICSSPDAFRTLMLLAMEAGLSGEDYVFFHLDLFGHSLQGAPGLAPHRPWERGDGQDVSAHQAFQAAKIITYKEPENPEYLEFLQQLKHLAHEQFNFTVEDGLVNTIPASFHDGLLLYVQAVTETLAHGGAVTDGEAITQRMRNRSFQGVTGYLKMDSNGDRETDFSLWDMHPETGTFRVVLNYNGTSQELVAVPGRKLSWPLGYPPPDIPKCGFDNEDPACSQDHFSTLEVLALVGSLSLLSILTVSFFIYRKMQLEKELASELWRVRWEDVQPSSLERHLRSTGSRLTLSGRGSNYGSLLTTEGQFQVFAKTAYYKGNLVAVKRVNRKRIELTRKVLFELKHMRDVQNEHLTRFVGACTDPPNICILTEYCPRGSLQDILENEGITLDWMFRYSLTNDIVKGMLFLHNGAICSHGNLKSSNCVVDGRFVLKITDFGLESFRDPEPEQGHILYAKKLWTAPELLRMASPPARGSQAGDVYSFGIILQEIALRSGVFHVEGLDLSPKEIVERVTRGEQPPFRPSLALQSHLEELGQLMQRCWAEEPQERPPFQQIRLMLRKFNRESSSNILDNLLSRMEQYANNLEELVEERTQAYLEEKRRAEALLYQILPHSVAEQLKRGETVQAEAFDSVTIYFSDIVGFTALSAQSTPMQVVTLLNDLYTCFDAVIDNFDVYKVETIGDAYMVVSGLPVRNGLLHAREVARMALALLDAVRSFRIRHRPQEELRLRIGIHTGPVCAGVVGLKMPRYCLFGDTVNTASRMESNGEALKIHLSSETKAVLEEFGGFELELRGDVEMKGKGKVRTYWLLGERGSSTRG


Assays:
[1] = target: T1, human natriuretic peptide receptor A …; assay: cell-based or functional assay
[2] = target: T2, rat NPRA; assay: cell-based or functional assay
[3] = target: T3, canine NPRA; assay: cell-based or functional assay
[4] = target: monkey NPRA (monkey); assay: cell-based or functional assay
[5] = target: T1, human natriuretic peptide receptor A …; assay: competition with 125I-labeled ANP on human NPRA transfected HEK293 cells
Protocol: (§1) Plates were washed using vacuum filtration and allowed to dry. Scintillant was added and the plates were counted on a TopCount Scintillation counter. Curves were fit using XLfit4.2 and IC₅₀ values (Table 8) were determined using the Dose Response One Site Model 205, [4 parameter fit: y=A+((B-A)/(1+((C/x)̂D)))].

[6] = target: T1, human natriuretic peptide receptor A …; assay: competition with 125I-labeled ANP on human NPRA transfected HEK293 cells; Ki=IC50/[1+([L]/Kd)]
Protocol: Plates were washed with ice cold buffer by vacuum filtration and allowed to dry. Scintillant was added and the plates were counted on a TopCount Scintillation counter.
as §1

[7] = target: T1, human natriuretic peptide receptor A …; assay: competition with 125I-labeled ANP on human NPRA transfected HEK293 cells; relative to Construct 1
Protocol: as §1

[8] = target: T3, canine NPRA; assay: cell-based or functional assay; remark: listed apart in the source

cGMP EC50 (nM) Human NPRA [1]	cGMP EC50 (nM) Rat NPRA [2]	cGMP EC50 (nM) Dog NPRA [3]	cGMP EC50 (nM) Monkey NPRA [4]	IC50 [5]	Ki [6]	Relative Affinity [7]	Mean EC50 nM, cGMP-caNPRA 293 [8]	Binder
27 nM	57 nM	46 nM	18 nM	29.3 nM	12.3 nM	4	–	Construct 4, ANPXY-L4-Fc2AB (recombinant) (Fc fusion, also called ANP28-11aa-hFc2) SLRRSSCFGGRMDRIGAQSGLGCNSFRYGGSGGSGGSGGCPPCPAPPVAGPSVFLFPPKPKDTLMISRTPEVTCVVVDVSHEDPEVQFNWYVDGVEVHNAKTKPREEQFNSTFRVVSVLTVVHQDWLNGKEYKCKVSNKGLPAPIEKTISKTKGQPREPQVYTLPPSREEMTKNQVSLTCLVKGFYPSDIAVEWESNGQPENNYKTTPPMLDSDGSFFLYSKLTVDKSRWQQGNVFSCSVMHEALHNHYTQKSLSLSPGK
6 nM	12 nM	6 nM	5 nM	4.3 nM	2 nM	1	–	Construct 5, ANPXY-L6-Fc2AB (recombinant) (Fc fusion, also called ANP28-20aa-hFc2) SLRRSSCFGGRMDRIGAQSGLGCNSFRYGGSGGSGGSGGSGGSGGSGGCPPCPAPPVAGPSVFLFPPKPKDTLMISRTPEVTCVVVDVSHEDPEVQFNWYVDGVEVHNAKTKPREEQFNSTFRVVSVLTVVHQDWLNGKEYKCKVSNKGLPAPIEKTISKTKGQPREPQVYTLPPSREEMTKNQVSLTCLVKGFYPSDIAVEWESNGQPENNYKTTPPMLDSDGSFFLYSKLTVDKSRWQQGNVFSCSVMHEALHNHYTQKSLSLSPGK
–	–	1.3 nM	0.5 nM	–	–	–	1.34 nM	SLRRSSCFGGRMDRIGAQSGLGCNSFRY (ends and bridges not checked; also: also used 125I-labelled as radioligand) [human ANP28 peptide (hANP28)]
